According to patent US20240301429A1 (RSEM LIMITED PARTNERSHIP, published 2024):

T1: SEMA3A-FC (R&D systems) (Homo sapiens (Human), UniProt Q14563 22-771)
T1 construct: Bought reagent; not shown: Fc portion of the bought fusion, detected with anti-human IgG
T1 sequence: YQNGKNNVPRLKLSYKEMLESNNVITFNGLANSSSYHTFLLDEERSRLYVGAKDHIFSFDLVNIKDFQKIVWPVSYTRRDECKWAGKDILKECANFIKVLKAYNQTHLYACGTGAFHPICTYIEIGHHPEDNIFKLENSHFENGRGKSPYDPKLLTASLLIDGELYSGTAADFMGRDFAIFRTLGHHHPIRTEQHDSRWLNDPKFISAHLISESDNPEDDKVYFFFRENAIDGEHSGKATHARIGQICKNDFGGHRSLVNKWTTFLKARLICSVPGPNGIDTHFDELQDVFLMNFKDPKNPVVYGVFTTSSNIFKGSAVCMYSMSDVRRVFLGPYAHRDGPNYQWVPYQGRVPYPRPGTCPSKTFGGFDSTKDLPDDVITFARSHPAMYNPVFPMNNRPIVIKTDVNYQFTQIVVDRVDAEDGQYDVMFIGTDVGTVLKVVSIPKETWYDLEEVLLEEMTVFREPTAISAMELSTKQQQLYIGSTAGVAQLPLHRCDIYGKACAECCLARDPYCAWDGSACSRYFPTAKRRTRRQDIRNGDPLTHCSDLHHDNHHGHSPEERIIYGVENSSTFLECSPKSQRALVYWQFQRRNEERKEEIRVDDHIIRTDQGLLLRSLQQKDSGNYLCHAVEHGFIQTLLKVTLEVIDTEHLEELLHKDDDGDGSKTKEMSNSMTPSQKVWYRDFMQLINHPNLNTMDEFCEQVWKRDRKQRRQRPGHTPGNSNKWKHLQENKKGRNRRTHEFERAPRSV


target: T1, SEMA3A-FC (R&D systems); test: saturation binding, trap coated on plate, SEMA3A-FC titrated, anti-human IgG-HRP chemiluminescence
Protocol: Sema 3A and AP-VEGF₁₆₅ binding assays. Saturation curves for the determinations of KD of binding to SEMA 3A or VEGF165 were obtained as follow. Wells of high protein binding 96 well plates (Maxisorp, Nunc) were coated with purified traps diluted in PBS and blocked afterward with binding buffer (PBS containing 2% casein and 0.05% Tween 20). The SEMA3A-FC (R&D systems) or AP-VEGF165 ligands were diluted in binding buffer over an extensive range of concentrations and added to wells. Following an overnight incubation, wells were washed with PBS containing 0.05% tween. Bound SEMA3a-FC was detected using an HRP-linked anti-Human IgG (Biorad) and ECL substrate (Pierce). Alternatively, bound AP-VEGF165 was detected using CPD star substrate (Roche). The Chemiluminescent signal was acquired on a TECAN reader. Dissociation constant (KD) were determined by non-linear curve fitting using the Graph Pad prism software.

Row | Binder | binding result | Kd [nM]
1 | NRP1 trap M (receptor, a1a2-b1; Signal peptide not trimmed) FRNDKCGDTIKIESPGYLTSPGYPHSYHPSEKCEWLIQAPDPYQRIMINFNPHFDLEDRDCKYDYVEVFDGENENGHFRGKFCGKIAPPPVVSSGPFLFIKFVSDYETHGAGFSIRYELFKRGPECSQNYTTPSGVIKSPGFPEKYPNSLECTYIVFAPKMSEIILEFESFDLEPDSNPPGGMFCRYDRLEIWDGFPDVGPHIGRYCGQKTPGRIRSSSGILSMVFYTDSAIAKEGFSANYSVLQSSVSEDFKCMEALGMESGEIHSDQITASSQYSTNWSAERSRLNYPENGWTPGEDSYREWIQVDLGLLRFVTAVGTQGAISKETKKKYYVKTYKIDVSSNGEDWITIKEGNKPVLFQGNTNPTDVVVAVFPKPLITRFVRIKPATWETGISMRFEVYGCRSGSKENLYFQG | – | 0.95
2 | NRP1 trap AK (receptor, a2b1b2; Signal peptide not trimmed) FRNDKRGPECSQNYTTPSGVIKSPGFPEKYPNSLECTYIVFAPKMSEIILEFESFDLEPDSNPPGGMFCRYDRLEIWDGFPDVGPHIGRYCGQKTPGRIRSSSGILSMVFYTDSAIAKEGFSANYSVLQSSVSEDFKCMEALGMESGEIHSDQITASSQYSTNWSAERSRLNYPENGWTPGEDSYREWIQVDLGLLRFVTAVGTQGAISKETKKKYYVKTYKIDVSSNGEDWITIKEGNKPVLFQGNTNPTDVVVAVFPKPLITRFVRIKPATWETGISMRFEVYGCKITDYPCSGMLGMVSGLISDSQITSSNQGDRNWMPENIRLVTSRSGWALPPAPHSYINEWLQIDLGEEKIVRGIIIQGGKHRENKVFMRKFKIGYSNNGSDWKMIMDDSKRKAKSFEGNNNYDTPELRTFPALSTRFIRIYPERATHGGLGLRMELLGCRSGSKENLYFQG | – | 4.4
3 | NRP1 trap AJ (receptor, a2b1b2c; Signal peptide not trimmed) FRNDKRGPECSQNYTTPSGVIKSPGFPEKYPNSLECTYIVFAPKMSEIILEFESFDLEPDSNPPGGMFCRYDRLEIWDGFPDVGPHIGRYCGQKTPGRIRSSSGILSMVFYTDSAIAKEGFSANYSVLQSSVSEDFKCMEALGMESGEIHSDQITASSQYSTNWSAERSRLNYPENGWTPGEDSYREWIQVDLGLLRFVTAVGTQGAISKETKKKYYVKTYKIDVSSNGEDWITIKEGNKPVLFQGNTNPTDVVVAVFPKPLITRFVRIKPATWETGISMRFEVYGCKITDYPCSGMLGMVSGLISDSQITSSNQGDRNWMPENIRLVTSRSGWALPPAPHSYINEWLQIDLGEEKIVRGIIIQGGKHRENKVFMRKFKIGYSNNGSDWKMIMDDSKRKAKSFEGNNNYDTPELRTFPALSTRFIRIYPERATHGGLGLRMELLGCEVEAPTAGPTTPNGNLVDECDDDQANCHSGTGDDFQLTGGTTVLATEKPTVIDSTIQSEFPTYGFNCEFGWGSHKTFCHWEHDNHVQLKWSVLTSKTGPIQDHTGDGNFIYSQADENQKGKVARLVSPVVYSQNSAHCMTFWYHMSGSHVGTLRVKLRYQKPEEYDQLVWMAIGHQGDHWKEGRVLLHKSLKLYQVIFEGEIGKGNLGGIAVDDISINNHISQEDCAKPADLDKKNPEIKIDETGSTPGYEGEGEGDKNISRKPGNVLKTLDPRSGSKENLYFQG | – | 2.4

Results, then the binder that gave them:

Row | binding result | Kd [nM] | Binder
4 | no binding | – | NRP1 trap AE (receptor, Signal peptide not trimmed) FRNDKCGDTIKIESPGYLTSPGYPHSYHPSEKCEWLIQAPDPYQRIMINFNPHFDLEDRDCKYDYVEVFDGENENGHFRGKFCGKIAPPPVVSSGPFLFIKFVSDYETHGAGFSIRYELFKRGPECSQNYTTPSGVIKSPGFPEKYPNSLECTYIVFAPKMSEIILEFESFDLEPDSNPPGGMFCRYDRLEIWDGFPDVGPHIGRYCGQKTPGRIRSSSGILSMVFYTDSAIAKEGFSANYSVLQSSVSEDFKCMEALGMESGEIHSDQITASSQYSTNWSAERSRLNYPENGWTPGEKSYREWIQVDLGLLRFVTAVGTQGAISKETKKKYYVKTYKIDVSSNGEDWITIKEGNKPVLFQGNTNPTDVVVAVFPKPLITRFVRIKPATWETGISMRFEVYGCKITDYPCSGMLGMVSGLISDSQITSSNQGDRNWMPENIRLVTSRSGWALPPAPHSYINEWLQIDLGEEKIVRGIIIQGGKHRENKVFMRKFKIGYSNNGSDWKMIMDDSKRKAKSFEGNNNYDTPELRTFPALSTRFIRIYPERATHGGLGLRMELLGCRSGSKENLYFQG
5 | no binding | – | NRP1 trap Q (receptor, a1a2-b1b2 with Y297A (held in the entry); Signal peptide not trimmed) FRNDKCGDTIKIESPGYLTSPGYPHSYHPSEKCEWLIQAPDPYQRIMINFNPHFDLEDRDCKYDYVEVFDGENENGHFRGKFCGKIAPPPVVSSGPFLFIKFVSDYETHGAGFSIRYELFKRGPECSQNYTTPSGVIKSPGFPEKYPNSLECTYIVFAPKMSEIILEFESFDLEPDSNPPGGMFCRYDRLEIWDGFPDVGPHIGRYCGQKTPGRIRSSSGILSMVFYTDSAIAKEGFSANYSVLQSSVSEDFKCMEALGMESGEIHSDQITASSQASTNWSAERSRLNYPENGWTPGEDSYREWIQVDLGLLRFVTAVGTQGAISKETKKKYYVKTYKIDVSSNGEDWITIKEGNKPVLFQGNTNPTDVVVAVFPKPLITRFVRIKPATWETGISMRFEVYGCKITDYPCSGMLGMVSGLISDSQITSSNQGDRNWMPENIRLVTSRSGWALPPAPHSYINEWLQIDLGEEKIVRGIIIQGGKHRENKVFMRKFKIGYSNNGSDWKMIMDDSKRKAKSFEGNNNYDTPELRTFPALSTRFIRIYPERATHGGLGLRMELLGCRSGSKENLYFQG
6 | no binding | – | NRP1 trap AD (receptor, Signal peptide not trimmed) FRNDKCGDTIKIESPGYLTSPGYPHSYHPSEKCEWLIQAPDPYQRIMINFNPHFDLEDRDCKYDYVEVFDGENENGHFRGKFCGKIAPPPVVSSGPFLFIKFVSDYETHGAGFSIRYELFKRGPECSQNYTTPSGVIKSPGFPEKYPNSLECTYIVFAPKMSEIILEFESFDLEPDSNPPGGMFCRYDRLEIWDGFPDVGPHIGRYCGQKTPGRIRSSSGILSMVFYTDSAIAKEGFSANYSVLQSSVSEDFKCMEALGMESGEIHSDQITASSQYSTNWSAERSRLNYPENGWTPGEKSYREWIQVDLGLLRFVTAVGTQGAISKETKKKYYVKTYKIDVSSNGEDWITIKEGNKPVLFQGNTNPTDVVVAVFPKPLITRFVRIKPATWETGISMRFEVYGCRSGSKENLYFQG
7 | no binding | – | NRP1 trap P (receptor, a1a2-b1 with Y297A (held in the entry); Signal peptide not trimmed) FRNDKCGDTIKIESPGYLTSPGYPHSYHPSEKCEWLIQAPDPYQRIMINFNPHFDLEDRDCKYDYVEVFDGENENGHFRGKFCGKIAPPPVVSSGPFLFIKFVSDYETHGAGFSIRYELFKRGPECSQNYTTPSGVIKSPGFPEKYPNSLECTYIVFAPKMSEIILEFESFDLEPDSNPPGGMFCRYDRLEIWDGFPDVGPHIGRYCGQKTPGRIRSSSGILSMVFYTDSAIAKEGFSANYSVLQSSVSEDFKCMEALGMESGEIHSDQITASSQASTNWSAERSRLNYPENGWTPGEDSYREWIQVDLGLLRFVTAVGTQGAISKETKKKYYVKTYKIDVSSNGEDWITIKEGNKPVLFQGNTNPTDVVVAVFPKPLITRFVRIKPATWETGISMRFEVYGCRSGSKENLYFQG
8 | – | 4.44 | NRP1 trap Z (receptor, a1a2-b1b2-c with E319K, D320K (held in the entry); Signal peptide not trimmed) FRNDKCGDTIKIESPGYLTSPGYPHSYHPSEKCEWLIQAPDPYQRIMINFNPHFDLEDRDCKYDYVEVFDGENENGHFRGKFCGKIAPPPVVSSGPFLFIKFVSDYETHGAGFSIRYELFKRGPECSQNYTTPSGVIKSPGFPEKYPNSLECTYIVFAPKMSEIILEFESFDLEPDSNPPGGMFCRYDRLEIWDGFPDVGPHIGRYCGQKTPGRIRSSSGILSMVFYTDSAIAKEGFSANYSVLQSSVSEDFKCMEALGMESGEIHSDQITASSQYSTNWSAERSRLNYPENGWTPGKKSYREWIQVDLGLLRFVTAVGTQGAISKETKKKYYVKTYKIDVSSNGEDWITIKEGNKPVLFQGNTNPTDVVVAVFPKPLITRFVRIKPATWETGISMRFEVYGCKITDYPCSGMLGMVSGLISDSQITSSNQGDRNWMPENIRLVTSRSGWALPPAPHSYINEWLQIDLGEEKIVRGIIIQGGKHRENKVFMRKFKIGYSNNGSDWKMIMDDSKRKAKSFEGNNNYDTPELRTFPALSTRFIRIYPERATHGGLGLRMELLGCEVEAPTAGPTTPNGNLVDECDDDQANCHSGTGDDFQLTGGTTVLATEKPTVIDSTIQSEFPTYGFNCEFGWGSHKTFCHWEHDNHVQLKWSVLTSKTGPIQDHTGDGNFIYSQADENQKGKVARLVSPVVYSQNSAHCMTFWYHMSGSHVGTLRVKLRYQKPEEYDQLVWMAIGHQGDHWKEGRVLLHKSLKLYQVIFEGEIGKGNLGGIAVDDISINNHISQEDCAKPADLDKKNPEIKIDETGSTPGYEGEGEGDKNISRKPGNVLKTLDPRSGSKENLYFQG
